Results taken from patent publication US10538802B2, “Polypeptide substrate for the detection of von Williebrand factor cleaving protease ADAMTS13” (IMMUCOR GTI DIAGNOSTICS, INC., priority 2011, dated 2020).

Molecular target: T1, ADAMTS13 (Homo sapiens, UniProt Q76LX8)
T1 construct: tissue Gen-Probe GTI Diagnostics (ATS-13 kit calibrators, controls and proficiency samples); George King Biomedical Inc. (FACT, A-FACT, B-FACT plasmas) ATS-13; host or cells: plasma
T1 sequence (Q76LX8 75-1427): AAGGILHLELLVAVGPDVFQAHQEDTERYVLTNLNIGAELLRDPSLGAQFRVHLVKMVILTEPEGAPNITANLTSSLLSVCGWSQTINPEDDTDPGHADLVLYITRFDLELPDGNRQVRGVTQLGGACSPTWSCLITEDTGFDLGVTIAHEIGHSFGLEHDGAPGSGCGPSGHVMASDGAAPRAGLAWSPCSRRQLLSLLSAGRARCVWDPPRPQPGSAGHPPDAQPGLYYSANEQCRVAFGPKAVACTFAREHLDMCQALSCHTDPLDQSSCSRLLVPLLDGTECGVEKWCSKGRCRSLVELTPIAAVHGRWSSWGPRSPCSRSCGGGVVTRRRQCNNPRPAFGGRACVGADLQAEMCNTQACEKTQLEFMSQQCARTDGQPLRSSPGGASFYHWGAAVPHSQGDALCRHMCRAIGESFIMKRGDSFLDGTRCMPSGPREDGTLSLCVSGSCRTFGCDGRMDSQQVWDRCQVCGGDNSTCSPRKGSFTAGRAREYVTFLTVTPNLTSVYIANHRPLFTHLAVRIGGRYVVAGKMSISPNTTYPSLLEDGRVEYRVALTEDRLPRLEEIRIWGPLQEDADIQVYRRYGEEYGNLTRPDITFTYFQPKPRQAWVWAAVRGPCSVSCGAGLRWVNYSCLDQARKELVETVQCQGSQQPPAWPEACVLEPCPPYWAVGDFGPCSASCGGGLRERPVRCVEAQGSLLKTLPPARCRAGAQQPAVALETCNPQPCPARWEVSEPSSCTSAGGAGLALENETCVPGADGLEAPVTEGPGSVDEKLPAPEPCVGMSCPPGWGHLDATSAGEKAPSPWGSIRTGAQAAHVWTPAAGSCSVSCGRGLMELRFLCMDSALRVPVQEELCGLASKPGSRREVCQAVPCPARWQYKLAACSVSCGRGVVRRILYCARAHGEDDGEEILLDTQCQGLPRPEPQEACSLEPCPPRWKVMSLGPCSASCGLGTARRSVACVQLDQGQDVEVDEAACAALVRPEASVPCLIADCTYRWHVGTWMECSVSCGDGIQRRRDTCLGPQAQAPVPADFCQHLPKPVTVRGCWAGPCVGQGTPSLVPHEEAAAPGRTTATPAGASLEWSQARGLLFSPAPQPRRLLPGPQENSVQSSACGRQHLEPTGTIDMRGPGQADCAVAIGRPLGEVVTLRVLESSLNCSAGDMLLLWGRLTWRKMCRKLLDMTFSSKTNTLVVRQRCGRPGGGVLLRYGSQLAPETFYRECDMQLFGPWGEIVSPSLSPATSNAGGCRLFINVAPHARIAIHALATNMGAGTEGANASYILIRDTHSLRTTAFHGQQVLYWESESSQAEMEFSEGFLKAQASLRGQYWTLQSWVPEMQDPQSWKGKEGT
Experiment: ADAMTS13 activity assay with fluorogenic (FRET) polypeptide substrate and diluted plasma samples
Type: biochemical
Method: The procedure in this example was performed substantially as described in Kokame, K., Y. Nobe, Y. Kokubo, A. Okayama, and T. Miyata. 2005. FRETS-VWF73, a first fluorogenic substrate for ADAMTS13 assay. Br. J. Haematol. 129:93-100, but using SEQ ID NO: 1 in place of the 73 amino acid substrate described therein. The FRETS-VWF73 substrate solution was dissolved in 25% dimethyl sulphoxide/water to prepare the 100 microM stock solution. The GTI FRET4 SEQ ID NO: 1 was dissolved in 100% DMSO. Both substrates were diluted to equal concentrations using ATS-13 substrate buffer (Gen-Probe GT1 Diagnostics, Inc., U.S.A., Cat#ATS-13).
Plasma samples were diluted according to the ATS-13 Direction Insert using ATS-13 specimen diluent (Gen-Probe GTI Diagnostics, Inc., U.S.A., Cat# ATS-13). The diluted plasma samples were mixed with the diluted substrate and the fluorescence was read at 0, 5, 10, 15, 20, 30, 45 minutes using a Biotek FLX800 at the appropriate excitation and emission wavelengths for each substrate.
The fluorophore-quencher pair in the SEQ ID NO: 1 polypeptide substrate is FAM-5/TQ 2^Tm (Ex 485±20; Em 528±20; AAT Bioquest, Inc. Sunnyvale, Calif. U.S.A.). The fluorophore and quencher pair of FRETS-VWF73 (Nma/Dnp) described in Kokame has been substituted with FAM-5 and TQ_2 respectively in GTI_FRET4 SEQ ID NO: 1. Furthermore, in the SEQ ID NO: 1 polypeptide the position of the fluorophore (FAM-5) and quencher (TQ_2) has been swapped relative to the position of the fluorophore and quencher of the FRETS-VWF73 construct. Therefore, for GTI_FRET4 SEQ ID NO: 1, attachment of the fluorophore (FAM-5) occurs by substituting asparagine with cystine at position 15. The quencher (TQ_2) was attached by substituting glutamine with lysine at position 4 (FIG. 2 and Table 4).
For this experiment, substrate concentration and fluorescence reader settings determined on the previous experiment are used. The specimens tested (listed in Table 3), include a panel of proficiency samples prepared for use with ATS-13 (Gen-Probe GTI Diagnostics, Inc., U.S.A., Cat# ATS-13) which included samples with normal or deficient ADAMTS13 activity levels. In addition, six Factor Assay ConTrol plasma were used (2 FACT, 2 A-FACT and 2 B-FACT, from George King Biomedical Inc., Kansas, USA). The assays for the SEQ ID NO: 1 substrate and for the prior art FRETS-VWF73 assay were performed generally as according to the procedure described in Example 1. Substrate is prepared according to the conditions used for initial testing of the substrate, which prepared the molar amount of SEQ ID NO: 1 polypeptide substrate used in the assay to be equivalent to the molar amount of FRETS-VWF73 used in the prior art. The […] assays were read at 0, 5, 10, 15, 20, 30, 45 minutes.
Testing of substrate for cleavability by ADAMTS13 is determined as is generally described in Example 1. […]

% Normal ADAMTS13 Values Calculated Using GTI_FRET4 Substrate (sample Calibrator D, incubation 15 Minutes): 58 % Normal
% Normal ADAMTS13 Values Calculated Using GTI_FRET4 Substrate (sample Calibrator D, incubation 30 Minutes): 59 % Normal
% Normal ADAMTS13 Values Calculated Using GTI_FRET4 Substrate (sample Calibrator D, incubation 45 Minutes): 59 % Normal
% Normal ADAMTS13 Values Calculated Using GTI_FRET4 Substrate (sample Calibrator D, incubation 60 Minutes): 60 % Normal
% Normal ADAMTS13 Values Calculated Using GTI_FRET4 Substrate (sample Calibrator D, incubation 75 Minutes): 61 % Normal
% Normal ADAMTS13 Values Calculated Using GTI_FRET4 Substrate (sample Calibrator D, incubation 90 Minutes): 62 % Normal
Increase in Fluorescence Values (X minute - 0 minute Reading) (sample Calibrator E, 15 min): 18,718 RFU
Increase in Fluorescence Values (X minute - 0 minute Reading) (sample Calibrator E, 30 min): 35,085 RFU
Increase in Fluorescence Values (X minute - 0 minute Reading) (sample Calibrator E, 45 min): 49,418 RFU
Increase in Fluorescence Values (X minute - 0 minute Reading) (sample Calibrator E, 60 min): 61,068 RFU
Increase in Fluorescence Values (X minute - 0 minute Reading) (sample Calibrator E, 75 min): 70,603 RFU
Increase in Fluorescence Values (X minute - 0 minute Reading) (sample Calibrator E, 90 min): 82,999 RFU
% Normal ADAMTS13 Values Calculated Using GTI_FRET4 Substrate (sample Calibrator E, incubation 15 Minutes): 101 % Normal
% Normal ADAMTS13 Values Calculated Using GTI_FRET4 Substrate (sample Calibrator E, incubation 30 Minutes): 101 % Normal
% Normal ADAMTS13 Values Calculated Using GTI_FRET4 Substrate (sample Calibrator E, incubation 45 Minutes): 100 % Normal
% Normal ADAMTS13 Values Calculated Using GTI_FRET4 Substrate (sample Calibrator E, incubation 60 Minutes): 100 % Normal
% Normal ADAMTS13 Values Calculated Using GTI_FRET4 Substrate (sample Calibrator E, incubation 75 Minutes): 98 % Normal
% Normal ADAMTS13 Values Calculated Using GTI_FRET4 Substrate (sample Calibrator E, incubation 90 Minutes): 98 % Normal
Increase in Fluorescence Values (X minute - 0 minute Reading) (sample MON110707, 15 min): 17,881 RFU
Increase in Fluorescence Values (X minute - 0 minute Reading) (sample MON110707, 30 min): 33,432 RFU
Increase in Fluorescence Values (X minute - 0 minute Reading) (sample MON110707, 45 min): 46,848 RFU
Increase in Fluorescence Values (X minute - 0 minute Reading) (sample MON110707, 60 min): 58,747 RFU
Increase in Fluorescence Values (X minute - 0 minute Reading) (sample MON110707, 75 min): 68,370 RFU
Increase in Fluorescence Values (X minute - 0 minute Reading) (sample MON110707, 90 min): 78,371 RFU
% Normal ADAMTS13 Values Calculated Using GTI_FRET4 Substrate (sample MON110707, incubation 15 Minutes): 97 % Normal
% Normal ADAMTS13 Values Calculated Using GTI_FRET4 Substrate (sample MON110707, incubation 30 Minutes): 96 % Normal
% Normal ADAMTS13 Values Calculated Using GTI_FRET4 Substrate (sample MON110707, incubation 45 Minutes): 95 % Normal
% Normal ADAMTS13 Values Calculated Using GTI_FRET4 Substrate (sample MON110707, incubation 60 Minutes): 96 % Normal
% Normal ADAMTS13 Values Calculated Using GTI_FRET4 Substrate (sample MON110707, incubation 75 Minutes): 95 % Normal
% Normal ADAMTS13 Values Calculated Using GTI_FRET4 Substrate (sample MON110707, incubation 90 Minutes): 92 % Normal
Increase in Fluorescence Values (X minute - 0 minute Reading) (sample Positive Control High, 15 min): 9,146 RFU
Increase in Fluorescence Values (X minute - 0 minute Reading) (sample Positive Control High, 30 min): 17,281 RFU
Increase in Fluorescence Values (X minute - 0 minute Reading) (sample Positive Control High, 45 min): 24,859 RFU
Increase in Fluorescence Values (X minute - 0 minute Reading) (sample Positive Control High, 60 min): 31,857 RFU
Increase in Fluorescence Values (X minute - 0 minute Reading) (sample Positive Control High, 75 min): 39,838 RFU
Increase in Fluorescence Values (X minute - 0 minute Reading) (sample Positive Control High, 90 min): 47,473 RFU
% Normal ADAMTS13 Values Calculated Using GTI_FRET4 Substrate (sample Positive Control High, incubation 15 Minutes): 48 % Normal
% Normal ADAMTS13 Values Calculated Using GTI_FRET4 Substrate (sample Positive Control High, incubation 30 Minutes): 49 % Normal
% Normal ADAMTS13 Values Calculated Using GTI_FRET4 Substrate (sample Positive Control High, incubation 45 Minutes): 50 % Normal
Sequence: DREKAPNLVYMVTGCPASDEIKRLPGDIQVVPIEVIGWPNAPILIQDEETLPREAPDLVLQR [GTI_FRET4]
